Assay [1] concerns the target T1, Farnesoid X receptor (FXR) (Homo sapiens, UniProt Q96RI1).
T1 construct: gene NR1H4; human FXR LBD (residues 248–486), N-terminal 8×His-Tag
T1 sequence (Q96RI1 248-486): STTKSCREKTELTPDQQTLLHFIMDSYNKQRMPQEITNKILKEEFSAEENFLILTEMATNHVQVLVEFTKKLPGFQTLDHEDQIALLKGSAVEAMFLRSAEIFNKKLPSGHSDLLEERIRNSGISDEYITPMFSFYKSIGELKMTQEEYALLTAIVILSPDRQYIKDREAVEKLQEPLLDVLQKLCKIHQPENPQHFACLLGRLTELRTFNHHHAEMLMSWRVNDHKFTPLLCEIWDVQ
Nature of the assay: SPR (Biacore T200, CM5 chip with FXR LBD WT); supported by DSF, CETSA and AlphaScreen. In kind it is binding. On the technique in general: In SPR one partner is held on a chip, and binding of the other changes the refractive index at the surface.

The target of assay [2] is T2, human FXR LBD H447A recombinant protein (human).
T2 chain: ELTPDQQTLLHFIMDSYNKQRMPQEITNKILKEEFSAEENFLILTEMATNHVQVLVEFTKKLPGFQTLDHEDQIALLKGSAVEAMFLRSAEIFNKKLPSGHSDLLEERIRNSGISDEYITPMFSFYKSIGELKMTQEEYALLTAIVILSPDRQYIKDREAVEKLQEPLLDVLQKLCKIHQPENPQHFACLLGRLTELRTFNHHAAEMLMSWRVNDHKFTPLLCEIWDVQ
Nature of the assay: SPR; with GPA.

Assay [3] addresses T3, human FXR LBD wild-type recombinant protein (human).
T3 chain: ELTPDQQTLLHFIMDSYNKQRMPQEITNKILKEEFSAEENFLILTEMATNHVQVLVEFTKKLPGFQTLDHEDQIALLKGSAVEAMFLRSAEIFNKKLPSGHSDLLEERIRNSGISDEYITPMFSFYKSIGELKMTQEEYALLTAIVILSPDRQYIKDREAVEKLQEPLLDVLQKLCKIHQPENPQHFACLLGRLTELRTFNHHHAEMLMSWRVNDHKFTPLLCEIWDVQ
Nature of the assay: SPR; with GPA.

For assay [4], the target named is T3, human FXR LBD wild-type recombinant …. Nature of the assay: SPR; with GW4064.

Ends that are not written are not given here.

The term Kd denotes the free concentration of one partner at which half of the binding sites on the other are occupied at equilibrium, for simple one-to-one binding. In assay [1], `O=C(O)C1=CO[C@@H](O[C@@H]2O[C@H](CO)[C@@H](O)[C@H](O)[C@H]2O)[C@@H]2C(CO)=CC[C@H]12` [GPA, Geniposidic acid] had a Kd of 390 nM.

B1: SRC2-3 biotinylated cofactor peptide (peptide)
peptide: QEPVSPKKKENALLRYLLDKDDTKD
modifications: also: biotinylated (position not given here)
B1: the Kd in assay [2] worked out at 355000 nM; in assay [3], 533 nM; in assay [4], 185 nM.
